In experiment [1] the target is peptic-tryptic-pancreatinic digest of wheat gliadin.
Experiment [2] has the same target. The source holds these as a separate data set.
Experiment [3] has the same target. The source holds these as a separate data set.

Read-outs that look alike come from different tables or passages of the source.

For the substance “Combination (1:1) of pig intestinal extract and crude caricain (pool or library)”, the Protection Index (%) in RLL assay in experiment [1] stood at 92%.
As for “Fraction 4 from CM Sephadex C-50 ion exchange chromatography of papaya latex (pool or library)”, the Protection Index (%) in RLL assay in experiment [2] was 84%.
For “caricain (EC 3.4.22.30) (from UniProt P10056) (enzyme)”, the Protection offered against gliadin in RLL Assay in experiment [3] was 32.3%.
crude caricain (pool or library): the Protection Index (%) in RLL assay in experiment [1] was 71%.
As for “pig intestinal enzyme extract (pool or library)”, the Protection Index (%) in RLL assay in experiment [1] came out at 61%.

The record behind these values is US10457929B2.
